Measurements from patent publication US20090226428A1 (CEPHALON AUSTRALIA, published 2009).
Residue numbers refer to the chain shown, from its start.

Columns and labels:
[1] = biological target: T1, human TNF-α (human, UniProt P01375 77-233); test: cell-based or functional assay
[2] = biological target: T1, human TNF-α; test: receptor binding assay (ELISA): dAb mixed with TNF (10 ng/ml), binding of TNF to captured TNF receptor 1 Fc fusion protein detected; blocked partner TNF receptor 1-Fc
Method: dAbs diversified in the 14 selected positions were tested for the ability to inhibit the binding of TNF to recombinant TNF receptor 1 (p55). Briefly, Maxisorp plates were incubated overnight with […] anti-human Fc mouse monoclonal antibody (Zymed, San Francisco, USA). The wells were washed with phosphate buffered saline (PBS) containing 0.05% Tween-20 and then blocked with 1% BSA in PBS before being incubated with 100 ng/ml TNF receptor 1 Fc fusion protein (R&D Systems, Minneapolis, USA). Each dAb was mixed with TNF which was added to the washed wells at a final concentration of 10 ng/ml. TNF binding was detected with 0.2 mg/ml biotinylated anti-TNF antibody (HyCult biotechnology, Uben, Netherlands) followed by 1 in 500 dilution of horse radish peroxidase labelled streptavidin (Amersham Biosciences, UK) and then incubation with TMB substrate (KPL, Gaithersburg, USA). The reaction was stopped by the addition of HCl and the absorbance was read at 450 nm. Anti-TNF dAb activity lead to a decrease in TNF binding and therefore a decrease in absorbance compared with the TNF only control (FIG. 5).

T1 sequence (P01375 77-233 limits assumed): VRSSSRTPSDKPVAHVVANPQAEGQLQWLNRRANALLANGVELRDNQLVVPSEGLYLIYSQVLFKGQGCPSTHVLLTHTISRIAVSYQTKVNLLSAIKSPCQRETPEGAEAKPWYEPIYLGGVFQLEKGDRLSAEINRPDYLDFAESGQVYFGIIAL

B1: Compound 100 (other)
VL: DIQMTQSPSSLSASVGDRVTITCRASQSIDSYLHWYQQKPGKAPKLLIYSASNLETGVPSRFSGSGSGTDFTLTISSLLPEDFATYYCQQVVWRPFTFGQGTKVEIKR
Which “EC50 (read off the curve); L929 cytotoxicity assay, cell viability (% control)” value [1] does the source give for B1 here?
The value was about 50 nM.

B2: Compound 123 (other)
VL: B1 VL with S28A, L79Q
With B2 as the binder, how does the “EC50 (read off the curve); L929 cytotoxicity assay, cell viability (% control)” value [1] read?
Its value is about 50 nM.

B3: Acceptor dAb (Compound 128) (other)
VL: B1 VL with N53E, E55Q, T56S, L79Q
notes: also called acceptor variable region (anti-TNF domain antibody)
Which “IC50 (read off the curve)” value [2] does the source give for B3 here?
The value was about 30 nM.

B4: Compound 145 (marmoset CDR-grafted dAb) (other)
VL: B1 VL with L79Q
notes: also called parent dAb
B4 was tested. Which “IC50 (read off the curve)” value [2] did it give?
The value was about 30 nM.
